According to patent EP3057986B1:

Target: CD16V-BB-ζ chimeric receptor (human)
Assay: cell-based or functional assay

Q: Which 24-hour cytotoxicity against NB1691 cells at 1:8 E:T does the source give for hu14.18K322A (antibody) here?
A: The 24-hour cytotoxicity against NB1691 cells at 1:8 E:T was greater than 50%.
